Experimental data as given in publication PMC4075990.

Columns and labels:
purified protein [1] = substrate: N#Cc1cn([C@@H]2O[C@H](CO)[C@@H](O)[C@H]2O)c2ncnc(N)c12; assay: purified protein; details: 0.05 M potassium phosphate pH 6.5, 10 nM enzyme, 0.1-2.5 mM substrate
purified protein [2] = substrate: N#Cc1cccnc1; assay: purified protein; details: 0.05 M potassium phosphate pH 6.5, 10 nM enzyme, 0.05-0.75 M substrate

B1: ToyJKL (toyocamycin nitrile hydratase, TNHase) (Streptomyces rimosus) (protein)
chain 1: MSTEHVSLPIAARVRRLEERVIAAGLVTDEQLDTILEHNLSRATPFNGARLVARAWTSPDFRDLLLGEPAAALREMGLDGLLADDEHLRVVANTPTVHNVVVCTLCSCYPVLLLGPSPSWYKSDAYRARVVREPRAVLAEFGTVLPAEVDVRVWDASAEARYMVLPRRPAGTEGLDEEGLAARVTRAGLIGTAPV
chain 2: MGERRFSVGDPVRVRPADPPHHTRVPRYVRGHLGHVVTVQPPCPLPDDVARRRDPFRVLPVYTVRFAARDLWGSGTHLVLIDLWECYLEPAAETARGLGGETS
chain 3: MARLNDIGGTFGYGSIPMDGAEPPHPWRHDWEARVFAVLIGLAMAGVWTASELRDAEERVPPNDYLAASYYERVLMGMELLLDEKGIPSRG
Purified protein [1]
  Km: 2.8 × 10^–2 ± 1 × 10^–3 mM
  kcat: 159 ± 2 s⁻¹
  kcat/Km: 5.7e+06 M⁻¹ s⁻¹
Purified protein [2]
  Km: 99 ± 2 mM
  kcat: 79 ± 5 s⁻¹
  kcat/Km: 800 M⁻¹ s⁻¹
